Laboratory results from PMC7195432, “MD2 activation by direct AGE interaction drives inflammatory diabetic cardiomyopathy” (Nature Communications, 2020).

Molecular target: T1, glucose-derived AGE-modified bovine serum albumin (AGE-BSA) (bovine, UniProt P02769 25-607, advanced glycation end product (AGE) modification, glucose-derived, glycolaldehyde-mediated; the modified residues are not stated)
T1 construct: bovine serum albumin, chemically AGE-modified; A heterogeneous glycated preparation; also called AGE-modified BSA; glucose-derived, glycolaldehyde-mediated AGE-BSA; source: bought: BioVision Incorporated (Cat # 2223), purity >98%
T1 sequence (P02769 25-607): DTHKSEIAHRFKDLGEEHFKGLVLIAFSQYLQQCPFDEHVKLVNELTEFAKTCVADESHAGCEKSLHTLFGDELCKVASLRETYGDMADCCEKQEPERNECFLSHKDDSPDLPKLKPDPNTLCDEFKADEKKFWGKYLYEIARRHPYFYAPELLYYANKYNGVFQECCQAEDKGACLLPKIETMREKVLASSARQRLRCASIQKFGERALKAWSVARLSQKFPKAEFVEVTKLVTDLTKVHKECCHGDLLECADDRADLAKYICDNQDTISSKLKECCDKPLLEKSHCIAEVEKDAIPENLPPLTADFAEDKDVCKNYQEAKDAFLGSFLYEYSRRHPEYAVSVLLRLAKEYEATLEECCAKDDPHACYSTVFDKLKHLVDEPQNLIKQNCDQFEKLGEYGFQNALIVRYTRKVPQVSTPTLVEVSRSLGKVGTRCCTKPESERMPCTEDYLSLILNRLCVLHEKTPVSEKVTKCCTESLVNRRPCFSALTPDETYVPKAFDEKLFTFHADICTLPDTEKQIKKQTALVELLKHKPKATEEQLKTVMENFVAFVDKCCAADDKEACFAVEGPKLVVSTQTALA
Experiment: ITC; Nano-ITC, 25 °C, proteins in ddH2O; AGE-BSA (1 μM) in the cell, MD2 protein solution (5 μM) in the syringe, 20 injections of 2.5 μL; independent model
Settings: both partners purified

Kd: 81 µM
B1: recombinant human MD2 (rhMD2) (natural protein, UniProt Q9Y6Y9 19-160, looked up)
chain: QKQYWVCNSSDASISYTYCDKMQYPISINVNPCIELKRSKGLLHIFYIPRRDLKQLYFNLYITVNTMNLPKRKEVICRGSDDDYSFCRALKGETVNTTISFSFKGIKFSKGKYKCVVEAISGSPEEMLFCLEFVILHQPNSN
notes: MD2 (myeloid differentiation 2), human, recombinant; also called human recombinant MD2 protein; source: bought: R&D Systems
